Measured values taken from PMC7336285, “Metabolite‐based genome‐wide association study enables dissection of the flavonoid decoration pathway of wheat kernels” (Plant Biotechnology Journal, 2020).

B1: TraesCS2B01G472400 (Triticum aestivum) (protein)
chain: MARLLRTSLVAPSPAGAALHERSLPLTYLDALWLHATPVERVFFYPNATSDVLSNLTDSLSNALAAFYPLAGRLRLTPGAHNRYELHCQPGDGVTFTVAEYHHVGFDELATDEPTEVAKIVPLVPPLPEGGAVLAVQATVLRGGLAIGVTVHHAACDGVSSTHFLRTWAWAAAACSGASAPVPPFVDRSIIRARDDLYDAFTAPRLSSNDDDDGGKPPDSPVVQQLLATFTLSKEHLQSIKEAVAGEAERRGVPLPRATSIIAAFGFIWQCYVRAKPGTDGKAGSSCGGRAYFLLPADHRTRLEPPVPDEYLGNCLGPCIALAPRRDVAAAGADGLFTACAAIATAIDGVVRSGPGCWDGWMERIIEAYTAGDLPLTVAGSPRFRVYDTDFGFGRPAKVDVVSVARTGAMSVAEARSGGGGVEVGISLSAGAMERFNECFADAIASLSS
notes: GST-tagged (pGEX-6p-1), E. coli BL21(DE3), glutathione Sepharose purified, tag cleavage not mentioned
B2: TraesCS1A01G347100 (Triticum aestivum) (protein)
chain: MEAANPNPTVVLHACLGVGHLIPMVELAKLFLLRGVPVVIAVPTPPASTADFFSSTASAVAGLEAANPSIAFHHLPPPDYPDPDPHPFLQMLDLLRLTVPSLLAFLRSLPSVAALVLDLFCIDSLDAAAQTGVPAYIYYTSSAGDLAAFLHLPHHFATTEGSFRDMGKAPLRFPGVPPIPASDMPHTVMDRADPICTIRIGHYGRIPEARGVLVNTYEWLEARAVGALREGVCVPGRPTPPVYCIGPLIVSDSAAAQGERHACLSWLDAQPERSVVFLCFGSMGAVSAAELKEIAHGLENSGHRFLWVVRTPPADPAKFFLPRPEPDLDALLPEGFTERTRDRGMVLKMWAPQVEVLRHAATGAFVTHCGWNSVLEAASAGVPMLCWPQYAEQRLNKEFVVDEMKVGVVMEGYDEELVRAEEVERKVRLVMESEEGEKLRERLALAKEKAAEAMADGGPSRMALAEFLKHSKLST
notes: as for B1

What was measured:
[1] = substrate: COc1cc(-c2cc(=O)c3c(O)cc(O[C@@H]4O[C@H](CO)[C@@H](O)[C@H](O)[C@H]4O)cc3o2)cc(OC)c1O; test: LC-MS product assay, Michaelis-Menten fit; format: biochemical, Triticum aestivum; conditions: formation of tricin 7-O-malonylglucoside, malonyl-CoA 0.03 mM, Tris-HCl pH 7.4, 37 °C
[2] = substrate: COc1cc(-c2cc(=O)c3c(O)cc(O)cc3o2)cc(OC)c1O; test: LC-MS product assay, Michaelis-Menten fit; format: biochemical, Triticum aestivum; conditions: formation of tricin 4′-O-glucoside (product postulated), UDP-glucose 0.75 mM, MgCl2 10 mM, Tris-HCl pH 7.4, 37 °C

| Protein | Km [1] [µM] | kcat [1] [s⁻¹] | Km [2] [µM] |
| --- | --- | --- | --- |
| B1 | 20.53 ± 1.02 | 81.72 ± 6.11 |  |
| B2 |  |  | 6.49 ± 0.71 |
